Reference: PMC6650547 (mBio, 2019)

Target: SUDV VP35:[change] peptide (residues 1 to 34) (Sudan virus (SUDV), strain Gulu, UniProt Q5XX07 1-34)
Assay: BLI
Conditions: both partners purified

B1: His-SUDV-NP(34-367) (domain or fragment)
chain: GIVRQRVIPVYVVNDLEGICQHIIQAFEAGVDFQDNADSFLLLLCLHHAYQGDHRLFLKSDAVQYLEGHGFRFEVREKENVHRLDELLPNVTGGKNLRRTLAAMPEEETTEANAGQFLSFASLFLPKLVVGEKACLEKVQRQIQVHAEQGLIQYPTSWQSVGHMMVIFRLMRTNFLIKFLLIHQGMHMVAGHDANDTVISNSVAQARFSGLLIVKTVLDHILQKTDLGVRLHPLARTAKVKNEVSSFKAALGSLAKHGEYAPFARLLNLSGVNNLEHGLYPQLSAIALGVATAHGSTLAGVNVGEQYQQLREAATEAEKQLQQYAETRELDNLG
Q: B1 was tested. Which Kd did it give?
A: ~266 nM
